Tested on: primary human T cells modified with the HLA class I restricted CDK4 TCR
Assay: Cytokine release and degranulation assay, CDK4 TCR T cells co-cultured with CDK4 peptide loaded T2 cells
Assay type: cell-based
Method: For use as T cell targets, T2 and CBH 5477 cells were loaded with the indicated concentrations of HLA-A*02:01 restricted mutant CDK4 peptide (ALDPHSGHFV), HLA A*02:01 restricted NY-ESO-1 peptide (SLLMWITQA), or HLA-DR1 restricted CMV peptide (KYQEFFWDANDIYRI) in IMDM for 1 hour at 37° C. Cells were then washed once and used in co-culture experiments.
T cells and NK cells were pretreated with the indicated concentrations of asunaprevir (MedChemExpress, #HY-14434), grazoprevir (MedChemExpress, #HY-15298), dTAG-13 (Tocris, #6605) or DMSO control in T cell media (RPMI/10% human serum/penicillin-streptomycin, 100 IU/ml IL2 and 5 ng/ml IL15) or NK cell media (RPMI/8% FCS/penicillin-streptomycin, 500 IU/ml IL2), respectively, for 24 hours before co-culture experiments. 100,000 T cells or NK cells and 100,000 of indicated tumor cells were mixed in T cell or NK cell media supplemented with golgi-plug (1:1000 dilution, BD, #51-2301KZ) and anti-LAMP1-APC (1:100 dilution, Biolegend, #328620) in the presence of indicated drugs or DMSO control in 96-well plates and incubated for 5 hours at 37° C.
After incubation, cells were washed once with PBS and stained with IR dye (Invitrogen, #L34976) at 1:400 dilution for 5 minutes at 4° C. Subsequently, cells were washed once with FACS buffer (PBS plus 0.5% BSA) and stained with anti-CD8-PerCP Cy5.5 (1:20 dilution, BD, #341050), anti-CD4 BV711 (1:50 dilution, Biolegend, #317440), anti-murine constant TCR-PE (in experiments with transduced TCRs, 1:200 dilution, BD, #553172) or cetuximab-PE (in experiments with transduced CAR construct containing truncated human EGFR reporter, 1:200 dilution, R&D Systems, #FAB9577P) for 20 minutes at 4° C. Cells were then washed once with FACS buffer and fixed with BD fixation and permeabilization solution (#51-2090KZ) for 20 minutes at 4° C.
Following permeabilization, cells were washed twice with BD perm/wash buffer (#51-2091KZ) and stained with anti-IFNγ-BV421 (1:100 dilution, BD, #564791), anti-IL-2-PE-Cy7 (1:100 dilution, BD, #560707) and anti-TNFα-BV650 (1:100 dilution, Biolegend, #502938) diluted in perm/wash buffer for 20 min at 4° C. Cells were then washed twice, resuspended in 100 μl FACS buffer and analyzed directly on a Fortessa Special Order analyzer. Data were analyzed using FlowJo and Prism 7 software.

[1] = T cells co-cultured with 10 nM peptide loaded T2 tumor cells, relative to vector control

B1: Zap70 2×SH2: the Zap70 SH2 domains without inhibitory tail; human Zap70 (P43403, 1-264 aa) (protein, UniProt P43403 1-264, looked up, fragment)
chain: MPDPAAHLPFFYGSISRAEAEEHLKLAGMADGLFLLRQCLRSLGGYVLSLVHDVRFHHFPIERQLNGTYAIAGGKAHCGPAELCEFYSRDPDGLPCNLRKPCNRPSGLEPQPGVFDCLRDAMVRDYVRQTWKLEGEALEQAIISQAPQVEKLIATTAHERMPWYHSSLTREEAERKLYSGAQTDGKFLLRPRKEQGTYALSLIYGKTVYHYLISQDKAGKYCIPEGTKFDTLWQLVEYLKLKADGLIYCLKEACPNSSASNASG
- effect of construct expression on T cell cytokine production and degranulation (no drug, T2 cells loaded with CDK4 neoantigen): modest inhibition of T cell functions

B2: Zap70-PD1: human Zap70 fragment (1-264 aa), a GGS linker, the human PD1 intracellular domain (192-288 aa) (protein)
chain: MPDPAAHLPFFYGSISRAEAEEHLKLAGMADGLFLLRQCLRSLGGYVLSLVHDVRFHHFPIERQLNGTYAIAGGKAHCGPAELCEFYSRDPDGLPCNLRKPCNRPSGLEPQPGVFDCLRDAMVRDYVRQTWKLEGEALEQAIISQAPQVEKLIATTAHERMPWYHSSLTREEAERKLYSGAQTDGKFLLRPRKEQGTYALSLIYGKTVYHYLISQDKAGKYCIPEGTKFDTLWQLVEYLKLKADGLIYCLKEACPNSSASNASGGGSCSRAARGTIGARRTGQPLKEDPSAVPVFSVDYGELDFQWREKTPEPPVPCVPEQTEYATIVFPSGMGTSSPARRGSADGPRSAQPLRPEDGHCSWPL
- reduction in percentage responding cells, IFNγ [1]: 104 fold
- reduction in percentage responding cells, IL-2 [1]: 110 fold
- reduction in percentage responding cells, TNFα [1]: 81 fold
- reduction in percentage responding cells, cell surface LAMP1 [1]: 40 fold

Source: patent US20230151373A1, “CHIMERIC POLYPEPTIDE FOR REGULATING IMMUNE CELLS” (STICHTING HET NEDERLANDS KANKER INSTITUUT-ANTONI VAN …, priority 2019, published 2023)
